From patent publication US20210009693A1 (MABSPACE BIOSCIENCES SUZHOU, published 2021) come the findings set out here.

The term EC50 (read off the curve) denotes the concentration that produces a half-maximal response.

The target of assay [1] is T1, human PD-L1 expressed on cells (human, UniProt Q9NZQ7 19-290).
T1 construct: whole, on cells; also called hPD-L1 expressed on HCC827; hPD-L1 on MC38/hPD-L1 cells
Put plainly: FACS, IFN-gamma stimulated HCC827 cells. The method, then: Log phase IFN-γ stimulated (500U/ml for 2 days) HCC827 cells were collected and resuspended in blocking buffer (5% BSA+PBS). 2×10\hat{ }5 cells were added to each tube and then washed once with PBS (1500 rpm, 5 mins, RT). The 100 μl/tube serial diluted PD-L1 antibodies purified from hybridoma supernatant in blocking buffer were added into corresponding tubes and were incubated at 4° C. for 1 hr. The cells were then washed twice with 1 ml PBS, followed by adding 100 μl/tube of 2nd antibody (1:400 anti-mIgG (H+L)-PE, Cell signaling) in blocking buffer. The cells were incubated at 4° C. for 1 hr and then washed twice with PBS, followed by resuspending cells in 150 μl PBS for each sample. The cells were then transferred into FACS tube and the bindings of the antibodies to the cells were detected using flow cytometry (BD Accuri C6) (see FIG. 5A).

Assay [2] has as its target T2, Recombinant Mouse PD-L1/CD274 Protein (mPD-L1-his) (mouse, UniProt Q9EP73 19-238).
T2 construct: range 19-238; ACRO Biosystem PD1-M5220; also called mouse PD-L1-his
Put plainly: ELISA, 20 ug/ml antibody on coated mouse PD-L1 (his-tagged per text, mPD-L1-Fc per sheet title). In a few lines: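 Wells coated overnight at 4 °C with 1 μg/ml mouse PD-L1-his, blocked 2 h with BSA/goat serum buffer; purified hybridoma mouse antibodies at 20 μg/ml bound 1 h at RT. Detection by HRP goat anti-mouse Fc (60 min, RT), TMB, acid stop, absorbance at 450 nm.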
For orientation: In an ELISA, binding on a coated surface is turned into a signal by an enzyme label.

Assay [3] concerns the target T3, human PD-L1-Fc mutant E58A (human).
T3 construct: Position 58 counts on native human PD-L1 (NP_054862.1); also called E58A mutant
Put plainly: ELISA on captured PD-L1-Fc, as in Example 18A.

Assay [4] has as its target T4, wild type human PD-L1-Fc protein (SEQ ID NO: 107) (human).
T4 construct: Extracellular human PD-L1 (amino acid 19-238) with Fc fragment of human IgG1, expressed in 293T cells and used as culture supernatant; also called WT PD-L1; wild-type PD-L1
Put plainly: ELISA on captured PD-L1-Fc, as in Example 18A.

Assay [5] deals with T1, human PD-L1 expressed on cells. Put plainly: blocking FACS on HCC827 cells; blocked ligand: biotinylated hPD-1-N297A. The method, then: Log phase IFN-γ stimulated (500U/ml for 2 days) HCC827 cells were collected and resuspended in blocking buffer (5% BSA+PBS). 2×10\hat{ }5 cells were added to each tube and then washed once with PBS (1500 rpm, 5 mins, RT). […] The cells were incubated at 4° C. for 1 hr and then washed twice with PBS, followed by resuspending cells in 150 μl PBS for each sample.

In assay [6] the target is T5, hPD-L2-Fc (human, UniProt Q9BQ51 20-219).
T5 construct: Acrobiosystems PD2-H5251; also called human PD-L2 protein; not shown: Fc tag
T5 sequence (looked up): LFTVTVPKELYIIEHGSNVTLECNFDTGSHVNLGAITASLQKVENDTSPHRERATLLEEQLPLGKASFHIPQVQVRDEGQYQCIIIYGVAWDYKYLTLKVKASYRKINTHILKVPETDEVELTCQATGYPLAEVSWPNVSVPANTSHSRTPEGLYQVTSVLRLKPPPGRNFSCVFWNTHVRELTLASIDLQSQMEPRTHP
Put plainly: ELISA, plate coated with hPD-L2-Fc.

For assay [7], the target named is T6, Recombinant Human PD-L1/CD274 Protein (hPD-L1-his) (human, UniProt Q9NZQ7 19-238).
T6 construct: range 19-238; ACRO Biosystem PD1-H5229, made in HEK293; also called human PD-L1-his; hPD-L-his
Put plainly: ELISA, purified mouse antibody on coated hPD-L1-his. The method, then: High-binding clear polystyrene 96 well plates (Nunc) were coated with 100 μl/well of a 0.5 μg/ml hPD-L1-his in high pH coating buffer and incubated overnight 4° C. Then plates were washed once on an automatic plate washer using washing buffer (PBS+0.1% Tween 20 (Sigma)). 200 μl of blocking buffer (PBS+1% BSA+1% normal goat serum+0.05% Tween-20) was added to each well and incubated 2 hours at room temp. Then add serially diluted purified antibodies with dilution buffer (PBS+1% BSA+1% normal goat serum+0.01% Tween-20) and incubate for 1 hour at RT. The plates were then washed 3 times using the method described above. 100 μl/well of a solution of HRP conjugated goat anti-mouse Fc antibody (Abcam) in dilution buffer was then added to each well of the plate. After that the ELISA plates were allowed to incubate for 60 min at RT then plates were washed 3 times with 250 μl/well washing buffer. Finally, 100 μl/well of TMB was added to each well and was terminated using 0.64M H₂SO₄. The plates were read on a Thermo Multiscan FC at 450 nM (see FIG. 3).

In assay [8] the target is T6, Recombinant Human PD-L1/CD274 Protein …. Put plainly: ELISA on coated hPD-L1-his; bound at pH7.4, then 2 h at pH5.5.
For assay [9] the target is unchanged. Put plainly: ELISA on coated hPD-L1-his; bound at pH7.4, then 2 h at pH7.4.
The target is the same in assay [10]. Put plainly: ELISA on coated human PD-L1-his. The method, then:
(§1) High-binding clear polystyrene 96-well plates (Nunc) were coated with 100 μl/well of a 0.5 μg/ml human or cynomolgus (cyno) PD-L1-his in high pH coating buffer and incubated overnight at 4° C. Then plates were washed once on an automatic plate washer using washing buffer (PBS+0.1% Tween 20 (Sigma)). 200 μl of blocking buffer (PBS+1% BSA+1% normal goat serum+0.05% Tween-20) was added to each well and incubated for 2 hours at room temperature. Then add serial diluted antibodies with dilution buffer (PBS+1% BSA+1% normal goat serum+0.01% Tween-20) and incubated for 1 hour at RT. The plates were then washed 3 times using the method described above. […] After that the ELISA plates were allowed to incubate for 60 min at RT then plates were washed 3 times with 250 μl/well washing buffer. Finally, 100 μl/well of TMB was added to each well and the reaction was terminated using 0.64M H₂SO₄. The plates were read on a Thermo Multiscan FC at 450 nM (see FIG. 6A to 6E).

Assay [11] has as its target T2, Recombinant Mouse PD-L1/CD274 Protein …. Put plainly: ELISA, plate coated with mouse PD-L1-his.
Assay [12] concerns the target T7, Cynomolgus PD-L1/CD274 with His tag (cPD-L1-His) (cynomolgus).
T7 construct: range 19-238; ACRO Biosystem PD1-C52H4; also called cynomolgus (cyno) PD-L1-his; cynomolgis PD-L1-his
Put plainly: ELISA on coated cynomolgus PD-L1-his. As for the experimental part:
as §1

Assay [13] concerns the target T8, Human PD-L1/CD274 with C-Fc Tag (hPD-L1-Fc) (human, UniProt Q9NZQ7 19-238).
T8 construct: range 19-238; ACRO Biosystem PD1-H5258, made in HEK293; also called human PD-L1-Fc; not shown: Fc fragment of human IgG1 at C-terminus
Put plainly: blocking ELISA on coated hPD-L1-Fc; blocked ligand: biotinylated hPD-1-N297A.

Assay [14] addresses T6, Recombinant Human PD-L1/CD274 Protein …. Put plainly: ELISA on coated hPD-L1-his; bound at pH7.4, then 2 h at pH5.5. This is another data set of the same source.
Assay [15] concerns the target T1, human PD-L1 expressed on cells. Put plainly: FACS, IFN-gamma stimulated HCC827 cells. The method, then:
Log phase IFN-γ stimulated (500U/ml for 2 days) HCC827 cells were collected and resuspended in blocking buffer (5% BSA+PBS). 2×10\hat{ }5 cells were added to each tube and then washed once with PBS (1500 rpm, 5 mins, RT). The 100 μl/tube serial diluted biotinylated PD-L1 antibodies with blocking buffer were added into corresponding tubes and incubate at 4° C. for 1 hr.
This is another data set of the same source. (A flow cytometer gives signals particle by particle.)

Assay [16] concerns the target T6, Recombinant Human PD-L1/CD274 Protein …. Put plainly: ELISA on coated hPD-L1-his; bound at pH7.4, then 2 h at pH7.4. The source holds these as a separate data set.
The target is the same in assay [17]. Put plainly: ELISA on coated hPD-L1-his.
Assay [18] addresses T1, human PD-L1 expressed on cells. Put plainly: blocking FACS on HCC827 cells; blocked ligand: biotinylated hPD-1-N297A. The method, then:
Log phase IFN-γ stimulated (500U/ml for 2 days) HCC827 cells were collected and resuspended in blocking buffer (5% BSA+PBS). 2×10\hat{ }5 cells were added to each tube and then washed once with PBS (1500 rpm, 5 mins, RT). The 100 μl/tube serial diluted PD-L1 antibodies (see FIG. 8) with blocking buffer were added into corresponding tubes and incubate at 4° C. for 1 hr. […] After washing for three times with PBS, 100 μl/tube streptavidin-PE 1:200 (EBiosciences) in blocking buffer was added to each tube. The cells were incubated at 4° C. for 1 hr and then washed twice with PBS, followed by resuspending cells in 150 μl PBS for each sample. The cells were then transferred into FACS tube and the binding of the antibodies to the cells were detected with flow cytometry (ACEA Bioscience Novocyte).
The source holds these as a separate data set.

Read-outs that look alike come from different tables or passages of the source.

T6 sequence (Q9NZQ7 other isoform, or with tags, fused parts or gaps limits assumed): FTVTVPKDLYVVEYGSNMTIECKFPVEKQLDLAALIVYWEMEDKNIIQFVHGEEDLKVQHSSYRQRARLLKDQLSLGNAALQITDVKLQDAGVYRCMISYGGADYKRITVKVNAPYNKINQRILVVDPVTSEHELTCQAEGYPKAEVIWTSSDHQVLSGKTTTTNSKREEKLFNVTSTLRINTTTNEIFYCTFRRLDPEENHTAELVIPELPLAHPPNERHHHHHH
T4 sequence (chain, as listed by the source limits assumed): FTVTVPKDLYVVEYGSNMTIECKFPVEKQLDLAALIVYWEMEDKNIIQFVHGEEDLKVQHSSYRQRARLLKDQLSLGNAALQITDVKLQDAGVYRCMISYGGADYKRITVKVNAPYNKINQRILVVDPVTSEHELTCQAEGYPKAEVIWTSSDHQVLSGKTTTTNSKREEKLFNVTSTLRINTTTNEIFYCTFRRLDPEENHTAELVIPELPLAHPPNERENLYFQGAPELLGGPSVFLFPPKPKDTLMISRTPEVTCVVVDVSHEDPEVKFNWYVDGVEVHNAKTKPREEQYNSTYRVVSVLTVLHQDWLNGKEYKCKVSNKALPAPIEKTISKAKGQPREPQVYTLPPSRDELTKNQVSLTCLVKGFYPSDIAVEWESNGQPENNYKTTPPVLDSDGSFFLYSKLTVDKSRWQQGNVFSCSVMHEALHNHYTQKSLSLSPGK
T3 sequence (chain, as listed by the source E58A E58A limits assumed): as the sequence (chain, as listed by the source limits assumed) above, with E40A counted along it
T1 sequence (Q9NZQ7 19-290): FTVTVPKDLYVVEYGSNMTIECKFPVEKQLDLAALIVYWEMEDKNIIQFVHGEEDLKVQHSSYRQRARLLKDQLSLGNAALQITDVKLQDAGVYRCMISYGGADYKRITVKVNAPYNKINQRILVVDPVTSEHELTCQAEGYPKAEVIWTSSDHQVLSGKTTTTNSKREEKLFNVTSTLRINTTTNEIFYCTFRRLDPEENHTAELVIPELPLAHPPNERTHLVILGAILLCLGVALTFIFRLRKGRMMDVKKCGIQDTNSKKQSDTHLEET
T2 sequence (Q9EP73 other isoform, or with tags, fused parts or gaps limits assumed): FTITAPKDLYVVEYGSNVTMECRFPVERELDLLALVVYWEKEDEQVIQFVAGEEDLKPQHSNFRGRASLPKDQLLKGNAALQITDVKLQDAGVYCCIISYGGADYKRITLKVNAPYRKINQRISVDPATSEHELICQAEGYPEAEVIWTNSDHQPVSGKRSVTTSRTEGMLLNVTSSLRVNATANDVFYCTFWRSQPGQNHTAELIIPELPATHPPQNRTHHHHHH
T8 sequence (Q9NZQ7 19-238 limits assumed): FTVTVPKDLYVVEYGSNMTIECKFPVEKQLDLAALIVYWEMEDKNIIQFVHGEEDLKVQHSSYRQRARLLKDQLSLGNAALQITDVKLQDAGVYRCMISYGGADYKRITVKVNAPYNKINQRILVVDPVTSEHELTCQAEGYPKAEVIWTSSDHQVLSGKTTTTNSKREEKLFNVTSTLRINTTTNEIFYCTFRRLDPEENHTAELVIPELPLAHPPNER

B1: 22C9 (antibody, V domains shown)
VH: QVQLQQSGAELVKPGASVKLSCKASGYTFTSYWMHWVWQRPGQGLEWIGMIHPNSDITNCNENFKHTVTLTVDKSSSTAYMQLSSLTSEDSAVFYCARSDGSSYWYFDVWGTGTTVTVSS
VL: SIVMTQTPKFLSVSAGDRVTITCKAGQSVNNDVAWYQQKPGQSPKLLIYYASNRYTGVPDRFTGSGYGTDFTFTISTVQAEDLAVYFCQQDFSSPLTFGAGTKLELK
notes: Mouse monoclonal from hybridoma; also called mouse monoclonal antibody 22C9
B1: in [1], the “EC50 (read off the curve)” value was around 0.1 µg/mL. Moreover, the binding result in assay [2] is “no binding (tested: 20 ug/ml)”. In addition, in assay [3], the “% of binding of Ab to E58A mutant vs. that to WT PD-L1” value worked out at 17.2%, the “Mean OD450” value came out at 0.33 OD450, the “OD450 nM of sample-1” value was 0.35 OD450 and the “OD450 nM of sample-2” value came out at 0.309 OD450. In addition, in assay [4], the “Mean OD450” value came to 1.92 OD450, the “OD450 nM of sample-1” value was found to be 1.9 OD450 and the “OD450 nM of sample-2” value amounted to 1.94 OD450. Also, the “IC50 (read off the curve)” value in [5] was around 0.2 µg/mL. The binding result in assay [6] is on record as “no binding (tested: 2 ug/ml)”. Besides, the “EC50 (read off the curve)” value in [7] is around 0.08 µg/mL.

B2: 4B6-C (antibody, V domains shown)
VH: EVQLQQSGPELVKPGASVKISCKASGYVFTDYYMNWVKQSHGKSLEWIGDINPNNGGTSYNHKFKGKATVTVDKSSRTAYMELLSLTSEDSAVYYCVKWGDGPFAYWGQGTLVTVSA
VL: DIVMTQSQKFMSTSVGDRVSITCKASQNVGAAVAWYQQKPGQSPKLLIYSASNRYTGVPDRFTGSGSGTDFTLTISNMQSEDLADYFCQQYSNYPTFGSGTKLGIK
notes: Mouse variable regions fused to a human IgG1 constant region; also called 4B6-chimeric; chimeric antibody 4B6
B2: the “EC50 (read off the curve)” value in assay [8] was around 0.02 µg/mL; in [9] it was around 0.01 µg/mL; in assay [10], around 0.01 µg/mL; in assay [12], around 0.01 µg/mL. The binding result in assay [11] is given as “no binding (tested: 20 ug/ml)”.

B3: 23F11-C (antibody, V domains shown)
VH: QVQLQQPGAELVKPGASVKLSCKASGYSFTTYWMHWVKQRPGQGLEWIGMIQPNSGGTKYNEKFKKKATLTVDKSSTTASMELSSLTSEDSAVYYCARGAGTVDYFDYWGQGSTLTVSS
VL: DIVLTHSPVSLAVSLGQRATISCRASESVDIYGNSFMHWYQQKPGQPPKLLIYRASNLESGIPARFSGSGSRTDFTLTINPVEADDVATYYCQQSTEDPYTFGGGTKLEIK
notes: Mouse variable regions fused to a human IgG1 constant region; also called 23F11-chimeric; chimeric antibody 23F11
Turning to B3, the “IC50 (read off the curve)” value in [13] was around 0.05 µg/mL; in assay [18], around 0.04 µg/mL. For the same molecule, the “EC50 (read off the curve)” value in [14] is around 0.03 µg/mL; in assay [15], around 0.04 µg/mL; in assay [16], around 0.02 µg/mL; in [17], around 0.004 µg/mL.
